Target: Spike protein S1 C-terminal domain 319-674 (Severe acute respiratory syndrome …, UniProt P0DTC2)
Assay: flow

B1: LRRC15 (protein)
chain: YHGCPSECTCSRASQVECTGARIVAVPTPLPWNAMSLQILNTHITELNESPFLNISALIALRIEKNELSRITPGAFRNLGSLRYLSLANNKLQVLPIGLFQGLDSLESLLLSSNQLLQIQPAHFSQCSNLKELQLHGNHLEYIPDGAFDHLVGLTKLNLGKNSLTHISPRVFQHLGNLQVLRLYENRLTDIPMGTFDGLVNLQELALQQNQIGLLSPGLFHNNHNLQRLYLSNNHISQLPPSVFMQLPQLNRLTLFGNSLKELSPGIFGPMPNLRELWLYDNHISSLPDNVFSNLRQLQVLILSRNQISFISPGAFNGLTELRELSLHTNALQDLDGNVFRMLANLQNISLQNNRLRQLPGNIFANVNGLMAIQLQNNQLENLPLGIFDHLGKLCELRLYDNPWRCDSDILPLRNWLLLNQPRLGTDTVPVCFSPANVRGQSLIIINVNVAVPSVHVPEVPSYPETPWYPDTPSYPDTTSVSSTTELTSPVEDYTDLTTIQVTDDRSVWGMTQAQSG
- Kd: ~260 nM

— PMC9897555 (2023)
